Data from US7314724B2, “Therapeutic applications of laminin and laminin-derived protein fragments” (University of Washington, priority 1996, dated 2008).
pKd: −log10 of the molar value.

Molecular target: T1, Aβ (1-40) (Homo sapiens, UniProt P05067)
T1 construct: 2 μg of Aβ (1-40)(Bachem Inc., Torrance, Calif. USA; Lot #WM365); purchased Bachem Inc., Torrance, Calif; Lot #WM365
Experiment: Solid phase binding immunoassay of laminin to substrate bound Aβ (1-40)
Details: one-site model, single binding constant; read-out: apparent dissociation constant Kd, binding to immobilized Aβ (1-40)
Method: 2 μg of Aβ (1-40)(Bachem Inc., Torrance, Calif. USA; Lot #WM365) in 40 μl of Tris-buffered saline (TBS)(pH 7.0) was allowed to bind overnight at 4° C. to microtiter wells (Nunc plates, Maxisorb). The next day all of the microtiter wells were blocked by incubating with 300 μl of Tris-buffered saline containing 100 mM Tris-HCl, 50 MM NaCl, 0.05% Tween-20, and 3 mM NaN3 (pH 7.4)(TTBS) plus 2% bovine serum albumin (BSA). Various dilutions (ie. 1:10, 1:30, 1:90, 1:270, 1:810, 1:2430 and 1:7290) of Engelbreth-Holm-Swarm (EHS) mouse tumor laminin (1 mg/ml)(Sigma Chemical Co., St. Louis, Mo., USA) in 250 μl of TBS (pH 7.4) were placed in wells (in triplicate) either containing substrate bound Aβ (1-40) or blank, and allowed to bind overnight at 4° C. overnight. […] The reaction was stopped with 50 μl of 4N H2SO4 and read on a Model 450 microplate reader (Biorad, Hercules, Calif. USA) at 490 nm. Data points representing a mean of triplicate determinations were plotted and the affinity constants (ie. Kd) were determined using Ultrafit (version 2.1, Biosoft, Cambridge, U.K.) as described below.
The binding data were analyzed assuming a thermodynamic equilibrium for the formation of the complex BL, from the laminin ligand in solution, L, and the uncomplexed Aβ adsorbed to the microtiter well, B, according to the equation: Kd=[B]×[L]/[BL]. […]

T1 sequence (P05067 672-711 limits assumed): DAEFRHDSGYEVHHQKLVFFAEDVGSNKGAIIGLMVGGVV

Question: How did the pKd turn out when “laminin: Engelbreth-Holm-Swarm (EHS) mouse tumor laminin (Sigma); 850 kDa basement membrane glycoprotein of A, B1 and B2 chains” was run?
Answer: 8.57
